From patent US20260103541A1 (UNIVERSIT T Z RICH, published 2026)

What was measured:
[1] = molecular target: T1, human FAP (fibroblast activation protein) on HT1080hFAP cells (human, UniProt Q12884 1-760); experiment: flow cytometry cell-based binding assay, HT1080hFAP against FAP-negative HT1080 cells
T1 construct: also called seprase
T1 sequence: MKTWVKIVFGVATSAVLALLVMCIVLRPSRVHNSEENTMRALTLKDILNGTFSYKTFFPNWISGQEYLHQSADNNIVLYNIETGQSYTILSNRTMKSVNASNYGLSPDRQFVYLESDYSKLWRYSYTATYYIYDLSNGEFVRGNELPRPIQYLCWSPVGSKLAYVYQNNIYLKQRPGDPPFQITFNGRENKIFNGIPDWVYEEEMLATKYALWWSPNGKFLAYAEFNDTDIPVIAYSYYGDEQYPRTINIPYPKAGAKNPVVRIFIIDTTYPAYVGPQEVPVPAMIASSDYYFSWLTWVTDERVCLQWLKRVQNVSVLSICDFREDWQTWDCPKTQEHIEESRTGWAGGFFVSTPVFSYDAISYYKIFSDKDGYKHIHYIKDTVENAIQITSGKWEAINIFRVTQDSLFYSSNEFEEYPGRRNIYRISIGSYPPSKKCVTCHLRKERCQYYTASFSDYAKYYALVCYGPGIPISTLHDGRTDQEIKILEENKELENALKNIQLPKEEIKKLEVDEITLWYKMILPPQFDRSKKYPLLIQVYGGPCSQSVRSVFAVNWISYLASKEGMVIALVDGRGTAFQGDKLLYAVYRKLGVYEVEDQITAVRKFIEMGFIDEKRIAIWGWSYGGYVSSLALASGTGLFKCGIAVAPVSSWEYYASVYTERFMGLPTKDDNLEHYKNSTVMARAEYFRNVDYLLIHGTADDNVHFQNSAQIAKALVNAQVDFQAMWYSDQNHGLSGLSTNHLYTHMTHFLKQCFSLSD

[2] = molecular target: T2, recombinant mouse FAP (R&D Systems) (mouse, UniProt P97321 26-761); experiment: ELISA, recombinant mouse FAP coated, 100 nM DARPin, anti-FLAG detection
T2 construct: also called Recombinant mFAP
T2 sequence: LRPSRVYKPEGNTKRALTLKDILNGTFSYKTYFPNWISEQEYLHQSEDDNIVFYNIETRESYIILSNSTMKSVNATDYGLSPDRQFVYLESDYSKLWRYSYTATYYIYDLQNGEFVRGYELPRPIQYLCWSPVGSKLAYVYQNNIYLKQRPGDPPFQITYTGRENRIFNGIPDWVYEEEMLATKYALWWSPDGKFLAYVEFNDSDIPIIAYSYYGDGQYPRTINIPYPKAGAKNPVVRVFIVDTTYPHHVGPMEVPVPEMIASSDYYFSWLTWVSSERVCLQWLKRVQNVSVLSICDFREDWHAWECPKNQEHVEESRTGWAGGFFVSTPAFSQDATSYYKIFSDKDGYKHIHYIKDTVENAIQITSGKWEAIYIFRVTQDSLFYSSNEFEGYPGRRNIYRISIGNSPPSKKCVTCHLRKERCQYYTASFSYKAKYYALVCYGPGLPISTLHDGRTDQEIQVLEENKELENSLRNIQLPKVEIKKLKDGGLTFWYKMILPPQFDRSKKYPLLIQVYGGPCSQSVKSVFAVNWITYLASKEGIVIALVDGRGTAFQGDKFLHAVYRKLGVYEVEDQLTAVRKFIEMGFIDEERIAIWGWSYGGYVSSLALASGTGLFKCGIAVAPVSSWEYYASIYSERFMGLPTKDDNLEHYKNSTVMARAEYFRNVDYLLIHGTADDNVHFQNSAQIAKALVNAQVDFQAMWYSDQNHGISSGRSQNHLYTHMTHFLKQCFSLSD
Method: Recombinant mFAP (R&D Systems), and recombinant maltose-binding protein (MBP; inhouse production) for a positive control, were used for a DARPin binding analysis via ELISA. Target protein was coated overnight (O/N) at 4° C. on MaxiSorp™ 96-well plates (Nunc). Blocking was performed for 2 h at RT using ELISA-blocking buffer (PBS containing 0.5% (w/v) BSA). Plates were washed with ELISA-PBS-T (PBS containing 0.05% (v/v) Tween 20). Samples were diluted (100 nM DARPin concentration) in ELISA-PBS-TB (ELISA PBS T containing 0.5% (w/v) BSA) and incubated for 1 h at 4° C. while shaking. DARPin detection was performed with rabbit anti-FLAG antibody (GenScript, A01868; 1:5,000) and goat anti-rabbit-AP antibody (Sigma Aldrich, A3687; 1:10,000), both diluted in ELISA-PBS-TB and incubated for 1 h at 4° C. while shaking. Substrate solution consisting of 3 mM p-nitrophenyl phosphate (pNPP) diluted in pNPP buffer (50 mM NaHCO₃, 50 mM MgCl₂) was used for final detection. A Tecan Infinite M1000 plate reader (Tecan) was used to measure the absorbance at 405 nm.

mouse FAP on cells = molecular target: T3, mouse FAP on cells (mouse, UniProt P97321 1-761); experiment: cell-based binding assay
T3 construct: also called murine FAP; mFAP
T3 sequence: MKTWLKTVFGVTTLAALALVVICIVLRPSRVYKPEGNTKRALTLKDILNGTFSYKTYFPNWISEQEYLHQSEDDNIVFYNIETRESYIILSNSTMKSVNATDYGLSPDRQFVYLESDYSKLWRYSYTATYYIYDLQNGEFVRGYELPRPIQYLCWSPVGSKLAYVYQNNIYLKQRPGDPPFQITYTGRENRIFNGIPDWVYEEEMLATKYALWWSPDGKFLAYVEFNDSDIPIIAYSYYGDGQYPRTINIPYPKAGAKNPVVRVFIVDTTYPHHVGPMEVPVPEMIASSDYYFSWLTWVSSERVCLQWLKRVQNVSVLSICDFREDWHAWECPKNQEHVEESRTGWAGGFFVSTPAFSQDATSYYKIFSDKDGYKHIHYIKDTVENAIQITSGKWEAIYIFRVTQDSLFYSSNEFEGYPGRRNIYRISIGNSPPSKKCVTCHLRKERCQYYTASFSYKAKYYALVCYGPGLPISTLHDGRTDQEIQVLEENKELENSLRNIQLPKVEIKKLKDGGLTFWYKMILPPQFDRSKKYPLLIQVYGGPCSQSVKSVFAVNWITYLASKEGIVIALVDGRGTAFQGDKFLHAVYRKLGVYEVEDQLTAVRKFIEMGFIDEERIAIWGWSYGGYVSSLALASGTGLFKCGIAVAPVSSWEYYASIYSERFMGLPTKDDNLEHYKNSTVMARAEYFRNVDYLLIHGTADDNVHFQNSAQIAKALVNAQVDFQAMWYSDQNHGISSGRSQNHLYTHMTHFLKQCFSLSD

Measured: binding result

B1: DARPin #6 (designed binder)
chain: DLGKKLLEAARAGQDDEVRILMANGADVNASDNWGRTPLHVAAQRGHLEIVDVLLAHGADDNASNRWGSTPLHVAAYTGHLEIVDVLLANGADVNASTANGETPLHAAAHAGHLEIVDVLLKHGADVNAQDKFGKTPFDLAIDNGNEDIAEVLQ
notes: also called designed ankyrin repeat domain #6; not shown: N terminal His6 tag; C terminal FLAG tag
binds: all assays above
